In patent US20060110796A1:

Tests used:
[1] = molecular target: glycomyoglobin with GalNAc-α-threonine at position 4 (myoglobin 4TAG mutant, C-terminal 6xHis tag) (UniProt P02185); test: enzyme-linked lectin-binding assay (ELLA); 600 ng myoglobin on plate, biotinylated lectin 10 µg/mL, streptavidin-AP, pNPP, 405 nm; reference is an equivalent concentration of tyrosine-myoglobin
[2] = molecular target: glycomyoglobin with β-GlcNAc-serine at position 4 (Gly4TAG mutant myoglobin, C-terminal His6 tag) (UniProt P02185); test: ELISA-like lectin binding assay; 200 ng myoglobin immobilized, biotinylated BSII, streptavidin-alkaline phosphatase, pNPP, A405
Sequence of glycomyoglobin with β-GlcNAc-serine at position 4 (Gly4TAG mutant myoglobin, C-terminal His6 tag) (P02185 other isoform, or with tags, fused parts or gaps mutant): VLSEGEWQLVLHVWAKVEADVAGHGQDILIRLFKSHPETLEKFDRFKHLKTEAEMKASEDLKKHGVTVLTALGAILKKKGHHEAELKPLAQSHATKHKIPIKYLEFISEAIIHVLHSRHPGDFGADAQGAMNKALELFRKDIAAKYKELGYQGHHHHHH

Sequence of glycomyoglobin with GalNAc-α-threonine at position 4 (myoglobin 4TAG mutant, C-terminal 6xHis tag) (P02185 other isoform, or with tags, fused parts or gaps mutant): as above
Sequence of Vicia Villosa lectin (VVL), biotinylated conjugate (P56625 whole entry): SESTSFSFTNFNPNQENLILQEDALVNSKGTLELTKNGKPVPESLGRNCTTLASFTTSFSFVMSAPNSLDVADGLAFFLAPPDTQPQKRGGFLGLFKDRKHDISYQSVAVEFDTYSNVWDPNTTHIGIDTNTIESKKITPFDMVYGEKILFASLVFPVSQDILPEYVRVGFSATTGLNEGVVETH

Substance | fold signal increase for glycomyoglobin versus tyrosine-myoglobin [1] | fold signal over wild-type myoglobin [2]
Vicia Villosa lectin (VVL), biotinylated conjugate (from UniProt P56625 1-185) | 10 fold | 
Bandeiraea simplicifolia II (BSII) lectin, biotinylated |  | > 200 fold
Dolichos Biflorus lectin (DBL), biotinylated conjugate (from UniProt P05045 23-275) | 5 fold | 
